Reference: PMC4230322

Substrate: CC/C(=C(\c1ccc(O)cc1)c1ccc(OCCN(C)C)cc1)c1ccccc1
Experiment: Initial rate kinetics of TAM sulfation
Type: biochemical, human
Conditions: other: TAM as substrate, pH 7.2, 25.0 °C

B1: SULT1A1 (Homo sapiens) (protein)
chain: MELIQDTSRPPLEYVKGVPLIKYFAEALGPLQSFQARPDDLLISTYPKSGTTWVSQILDMIYQGGDLEKCHRAPIFMRVPFLEFKAPGIPSGMETLKDTPAPRLLKTHLPLALLPQTLLDQKVKVVYVARNAKDVAVSYYHFYHMAKVHPEPGTWDSFLEKFMVGEVSYGSWYQHVQEWWELSRTHPVLYLFYEDMKENPKREIQKILEFVGRSLPEETVDFVVQHTSFKEMKKNPMTNYTTVPQEFMDHSISPFMRKGMAGDWKTTFTVAQNERFDADYAEKMAGCSLSFRSEL
E·(PAP)2 form, [PAPS] 250 μM
  kcat: 11 s⁻¹
E·PAP form, [PAPS] 4.0 μM
  Km: 14 (1.0) μM
  kcat: 2 s⁻¹
